Molecular target: IGHV3-21/IGLV3-21^G110 BCR on murine TKO cells (human) (UniProt P01871)
Assay: flow cytometry dot plot, cell mix B (1:1 IGHV3-21/IGLV3-21^G110 BCR TKO cells and BCR-negative TKO cells), 5 µg/ml mAb01-01-APC and 2 µg/ml anti-human IgM-PE

IGHV3-21/IGLV3-21^G110 BCR on murine TKO cells (human), sequence (P01871 other isoform, or with tags, fused parts or gaps, chain 1 of 2): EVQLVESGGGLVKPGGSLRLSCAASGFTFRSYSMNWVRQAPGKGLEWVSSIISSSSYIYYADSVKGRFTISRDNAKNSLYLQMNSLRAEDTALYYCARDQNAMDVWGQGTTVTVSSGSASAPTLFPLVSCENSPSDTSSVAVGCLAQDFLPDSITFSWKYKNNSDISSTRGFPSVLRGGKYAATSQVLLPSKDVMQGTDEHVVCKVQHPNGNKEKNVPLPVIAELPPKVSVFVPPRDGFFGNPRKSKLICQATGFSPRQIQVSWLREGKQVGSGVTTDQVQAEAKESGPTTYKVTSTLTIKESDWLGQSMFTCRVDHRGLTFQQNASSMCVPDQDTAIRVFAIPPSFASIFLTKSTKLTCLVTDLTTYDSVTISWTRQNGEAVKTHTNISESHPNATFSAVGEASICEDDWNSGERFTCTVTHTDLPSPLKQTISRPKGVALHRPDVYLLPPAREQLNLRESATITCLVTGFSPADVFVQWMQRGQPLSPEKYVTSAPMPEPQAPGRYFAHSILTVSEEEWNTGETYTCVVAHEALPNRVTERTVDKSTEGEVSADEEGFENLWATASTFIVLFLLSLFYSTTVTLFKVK
IGHV3-21/IGLV3-21^G110 BCR on murine TKO cells (human), sequence (light, as listed by the source, chain 2 of 2): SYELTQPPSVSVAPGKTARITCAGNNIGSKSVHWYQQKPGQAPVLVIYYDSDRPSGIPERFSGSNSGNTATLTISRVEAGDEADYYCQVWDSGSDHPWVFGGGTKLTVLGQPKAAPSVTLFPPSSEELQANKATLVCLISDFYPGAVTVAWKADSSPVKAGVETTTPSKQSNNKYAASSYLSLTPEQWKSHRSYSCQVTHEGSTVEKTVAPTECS

B1: mAb01-01 (antibody, mouse IgG1, kappa, V domains shown)
VH: QVQLQQSGPGLVQPSQSLSITCTVSGFSLTSYGIHWVRQSPGKGLEWLGVIWRGGGTDSNAAFMSRLSITKDNSKSQVFFKMNSLQADDTAIYYCARSRYDEEESMNYWGQGTSVTVSS
VL: QIVLTQSPASLSASVGETVTITCRASGNIHSYLAWYQQKQGKSPQLLVYNAKTLADGVPSRFSGSGSGTQYSLKINSLQPEDFGSYYCQHFWNTPPTFGAGTKLELKR
With B1 the share of gated cells (P1) in quadrant Q1 (anti-IgM-PE positive, mAb01-01-APC negative) was 42.2% and the share of gated cells (P1) in quadrant Q2 (anti-IgM-PE positive, mAb01-01-APC positive) was 1.11%.

From patent US20230272073A1
